This note sets out measurements from patent US20250171549A1 (Amgen, published 2025).

Where only a bound is given, the exact number is not on record here.

Common to all, as to assay: cell-based or functional assay
For assay [1], the target named is T1, human CCR8 (human, UniProt P51685 1-355).
In assay [2] the target is T1, human CCR8. This is another data set of the same source.
Assay [3] concerns the target T1, human CCR8. This is another data set of the same source.

T1 sequence (P51685 whole entry): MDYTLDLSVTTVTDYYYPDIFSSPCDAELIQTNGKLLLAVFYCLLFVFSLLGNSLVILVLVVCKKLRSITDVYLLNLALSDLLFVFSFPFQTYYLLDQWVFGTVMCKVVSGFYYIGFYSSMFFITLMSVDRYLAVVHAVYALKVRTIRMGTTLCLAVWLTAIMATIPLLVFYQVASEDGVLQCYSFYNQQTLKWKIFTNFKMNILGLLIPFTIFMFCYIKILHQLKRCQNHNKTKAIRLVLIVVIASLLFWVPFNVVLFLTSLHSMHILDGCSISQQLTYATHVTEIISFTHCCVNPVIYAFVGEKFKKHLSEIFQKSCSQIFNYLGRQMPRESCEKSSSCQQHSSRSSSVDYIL

B1: Antibody 3.0 IgG1 (antibody, V domains shown)
VH: EVQLVESGGGLVKPGGSLRLSCAASGFIFSNAWMSWVRQAPGKGLEWVARIKRRTDGGTTDYAAPVKDRFTISRDDSKNTLFLQMNSLKTEDTAVYYCTTVTMVRGVIADYWGQGTLVTVSS
VL: EIVLTQSPGTLSLSPGERATLSCRASQSVSSGSLAWYQQKLGQAPRLLIYGASSRATGIPDRFSGSGSGTDFTLTISSLEPEDFAVYYCQQYGSSRTFGQGTKVELKR
With B1, the “Percent Inhibition (IC50 nM) of CCL1-dependent chemotaxis of HUT78 cells” value (“Percent Inhibition (IC50 nM)” below) in assay [1] was determined as 3.7 nM. For the same molecule, in assay [2], the “ADCC, Percent Non-Viable cells (EC50 pM), Donor 1” value was below 0.256 pM and the “ADCC, Percent Non-Viable cells (EC50 pM), Donor 2” value was determined as 15.5 pM.

B2: Antibody 4.0 IgG1 (antibody, V domains shown)
VH: EVQLVESGGGLVKPGGSLRLSCAASGFIFSNAWMSWVRQAPGKGLEWVGRIKRKTDGGTTDYAAPVKGRFTISRDDSKNTLYLLMNSLKIEDTAVYYCTVVTLVRGIIFDYWGQGTLVTVSS
VL: EIVLTQSPGTLSLSPGESATLSCRVSQSVSSSQLAWYQQKPGQAPRLLIYGASSRATGIPDRFSGSGSGTDFTLTISRLEPEDFAVYYCQQYGNSRTFGQGTKVEIKR
Turning to B2, the “Percent Inhibition (IC50 nM)” value in assay [1] amounted to 8.4 nM. In addition, in assay [2], the “ADCC, Percent Non-Viable cells (EC50 pM), Donor 1” value was below 0.256 pM and the “ADCC, Percent Non-Viable cells (EC50 pM), Donor 2” value came out at 218 pM.

B3: Antibody 2.1 IgG1 (LC: F2I_P51S_H53Q_L103V_N148K, HC: K87N_S94N_V98A)(LC: Y25A_S26A, HC: A71I_D72R) (antibody, V domains shown)
VH: QVQLVESGGGVVQPGRSLRLSCAASGFTFSNYGMHWVRQAPGKGLEWVAVISYDGSNKFYIRSVKGRFTISRDNSKNTLYLQMNSLRAEDTAVYYCARAGGIGRFDYWGQGTLVTVSS
VL: DIVMTQTPLSLSVTPGQPASISCKAAQSLLHSDGKTYLFWYLQKPGQSPQLLIYEVSNRFSGVPDRFSGSGSGTDFTLKISRVEAEDVGVYYCMQTLKLPLTFGGGTKVEIKR
As for B3, in assay [2], the “ADCC, Percent Non-Viable cells (EC50 pM), Donor 1” value is below 0.256 pM; the “ADCC, Percent Non-Viable cells (EC50 pM), Donor 2” value worked out at 13.3 pM; the “ADCC, Percent Non-Viable cells (EC50 pM), Donor 3” value was 1 pM.

B4: Antibody 5.4 IgG1 (VH: G40A, VL: S57Y_E58L_V67T_F103V)_huIgG1z mAb (antibody, V domains shown)
VH: QVQLVESGGGVVQPGRSLRLSCAASGFTFSSYAMHWVRQAPGKGLEWVAVISYDGSNKYYADSVKGRFTISRDNSKNTLYLQMNSLRAEDTAVYYCARGRYFDWFLFDYWGQGTLVTVSS
VL: DTVMTQTPLSLSVTPGQPASISCKSSQSLLHSDGKTYLFWYLQKPGQPPQLLIYLTSNRFSGVPDRFSGSGSGTDFTLKISRVEAEDVGVYYCMQSLRLPLTFGGGTKVEIKR
As for B4, in assay [3], the “ADCC, Percent Non-Viable cells (EC50 pM), Donor 4” value came to 3.43 pM; the “ADCC, Percent Non-Viable cells (EC50 pM), Donor 5” value was determined as 0.889 pM; the “ADCC, Percent Non-Viable cells (EC50 pM), Donor 6” value came to 4.62 pM.

B5: Antibody 5.1 IgG1 (VH: F134T, VL: S34R_S57Y_F103V)_huIgG1z mAb (antibody, V domains shown)
VH: QVQLVESGGGVVQPGRSLRLSCAASGFTFSSYGMHWVRQAPGKGLEWVAVISYDGSNKYYADSVKGRFTISRDNSKNTLYLQMNSLRAEDTAVYYCARGRYFDWTLFDYWGQGTLVTVSS
VL: DTVMTQTPLSLSVTPGQPASISCKSSQSLLHRDGKTYLFWYLQKPGQPPQLLIYEVSNRFSGVPDRFSGSGSGTDFTLKISRVEAEDVGVYYCMQSLRLPLTFGGGTKVEIKR
As to B5, in assay [3], the “ADCC, Percent Non-Viable cells (EC50 pM), Donor 4” value worked out at 3.68 pM; the “ADCC, Percent Non-Viable cells (EC50 pM), Donor 5” value is 0.865 pM; the “ADCC, Percent Non-Viable cells (EC50 pM), Donor 6” value was 4.89 pM.

B6: Antibody 5.3 IgG1 (VH: A71S_D72R, VL: S57Y_E58L_V67S_F103V)_huIgG1z mAb (antibody, V domains shown)
VH: QVQLVESGGGVVQPGRSLRLSCAASGFTFSSYGMHWVRQAPGKGLEWVAVISYDGSNKYYSRSVKGRFTISRDNSKNTLYLQMNSLRAEDTAVYYCARGRYFDWFLFDYWGQGTLVTVSS
VL: DTVMTQTPLSLSVTPGQPASISCKSSQSLLHSDGKTYLFWYLQKPGQPPQLLIYLSSNRFSGVPDRFSGSGSGTDFTLKISRVEAEDVGVYYCMQSLRLPLTFGGGTKVEIKR
As for B6, in assay [3], the “ADCC, Percent Non-Viable cells (EC50 pM), Donor 4” value stood at 3.34 pM; the “ADCC, Percent Non-Viable cells (EC50 pM), Donor 5” value stood at 0.642 pM; the “ADCC, Percent Non-Viable cells (EC50 pM), Donor 6” value stood at 3.48 pM.

B7: Antibody 6.2 IgG1 (VH: S67R_Q68A_L135K_F136L, VL: S109T_I110L)_huIgG1z mAb (antibody, V domains shown)
VH: QVQLVESGGGVVQPGRSLRLSCEASGFTFSSYVMHWVRQAPGKGLEWVSVISYDGSRAYYTDSVKGRFTISRDNSKNTLNLQMNSLRAEDTAVYYCVRGRLATAIKLDYWGQGTLVTVSS
VL: DILMTQTPLSLSVTPGQPASISCKSSQSLLYSDGKTYLFWYLQRPGQPPQLLIYEVSNRFSGVPDRFSGSGSGTDFTLKISRVEAEDVGIYYCMQTLKLPLTFGGGTKVEIKR
Turning to B7, in assay [3], the “ADCC, Percent Non-Viable cells (EC50 pM), Donor 4” value is 4.12 pM; the “ADCC, Percent Non-Viable cells (EC50 pM), Donor 5” value is 2.04 pM; the “ADCC, Percent Non-Viable cells (EC50 pM), Donor 6” value stood at 5.14 pM.

B8: Antibody 6.1 IgG1 (VH: S67R_A114S_I134P, VL: F71L)_huIgG1z mAb (antibody, V domains shown)
VH: QVQLVESGGGVVQPGRSLRLSCEASGFTFSSYVMHWVRQAPGKGLEWVSVISYDGSRQYYTDSVKGRFTISRDNSKNTLNLQMNSLRAEDTAVYYCVRGRLATSPLFDYWGQGTLVTVSS
VL: DILMTQTPLSLSVTPGQPASISCKSSQSLLYSDGKTYLFWYLQRPGQPPQLLIYEVSNRLSGVPDRFSGSGSGTDFTLKISRVEAEDVGIYYCMQSIKLPLTFGGGTKVEIKR
For the molecule B8, in assay [3], the “ADCC, Percent Non-Viable cells (EC50 pM), Donor 4” value worked out at 4.52 pM; the “ADCC, Percent Non-Viable cells (EC50 pM), Donor 5” value came to 1.05 pM; the “ADCC, Percent Non-Viable cells (EC50 pM), Donor 6” value was 3.62 pM.

B9: Antibody 5.2 IgG1 (VH: G40P_F134T, VL: S57Y_E58L_V67R_F103V)_huIgG1z mAb (antibody, V domains shown)
VH: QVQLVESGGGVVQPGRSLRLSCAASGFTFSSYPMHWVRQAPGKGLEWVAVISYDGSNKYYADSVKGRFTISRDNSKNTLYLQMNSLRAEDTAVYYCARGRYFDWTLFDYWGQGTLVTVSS
VL: DTVMTQTPLSLSVTPGQPASISCKSSQSLLHSDGKTYLFWYLQKPGQPPQLLIYLRSNRFSGVPDRFSGSGSGTDFTLKISRVEAEDVGVYYCMQSLRLPLTFGGGTKVEIKR
As to B9, in assay [3], the “ADCC, Percent Non-Viable cells (EC50 pM), Donor 4” value was determined as 6.2 pM; the “ADCC, Percent Non-Viable cells (EC50 pM), Donor 5” value worked out at 1.01 pM; the “ADCC, Percent Non-Viable cells (EC50 pM), Donor 6” value was 6.11 pM.

B10: Antibody 5.5 IgG1 (VH: G40P_M41V, VL: S57Y_E58L_V67T_F103V)_huIgG1z mAb (antibody, V domains shown)
VH: QVQLVESGGGVVQPGRSLRLSCAASGFTFSSYPVHWVRQAPGKGLEWVAVISYDGSNKYYADSVKGRFTISRDNSKNTLYLQMNSLRAEDTAVYYCARGRYFDWFLFDYWGQGTLVTVSS
VL: DTVMTQTPLSLSVTPGQPASISCKSSQSLLHSDGKTYLFWYLQKPGQPPQLLIYLTSNRFSGVPDRFSGSGSGTDFTLKISRVEAEDVGVYYCMQSLRLPLTFGGGTKVEIKR
For the molecule B10, in assay [3], the “ADCC, Percent Non-Viable cells (EC50 pM), Donor 4” value was 4.89 pM; the “ADCC, Percent Non-Viable cells (EC50 pM), Donor 5” value was determined as 0.837 pM; the “ADCC, Percent Non-Viable cells (EC50 pM), Donor 6” value amounted to 3.77 pM.

B11: Antibody 6.0 IgG1 (antibody, V domains shown)
VH: QVQLVESGGGVVQPGRSLRLSCEASGFTFSSYVMHWVRQAPGKGLEWVSVISYDGSSQYYTDSVKGRFTISRDNSKNTLNLQMNSLRAEDTAVYYCVRGRLATAILFDYWGQGTLVTVSS
VL: DILMTQTPLSLSVTPGQPASISCKSSQSLLYSDGKTYLFWYLQRPGQPPQLLIYEVSNRFSGVPDRFSGSGSGTDFTLKISRVEAEDVGIYYCMQSIKLPLTFGGGTKVEIKR
For B11, in assay [1], the “Percent Inhibition (IC50 nM)” value stood at 20.1 nM. Besides, in assay [2], the “ADCC, Percent Non-Viable cells (EC50 pM), Donor 1” value stood at 2 pM and the “ADCC, Percent Non-Viable cells (EC50 pM), Donor 2” value came out at 37.4 pM.

B12: Antibody 5.0 IgG1 (antibody, V domains shown)
VH: QVQLVESGGGVVQPGRSLRLSCAASGFTFSSYGMHWVRQAPGKGLEWVAVISYDGSNKYYADSVKGRFTISRDNSKNTLYLQMNSLRAEDTAVYYCARGRYFDWFLFDYWGQGTLVTVSS
VL: DTVMTQTPLSLSVTPGQPASISCKSSQSLLHSDGKTYLFWYLQKPGQPPQLLISEVSNRFSGVPDRFSGSGSGTDFTLKISRVEAEDVGFYYCMQSLRLPLTFGGGTKVEIKR
B12: the “Percent Inhibition (IC50 nM)” value in assay [1] is 13.6 nM. For the same molecule, in assay [2], the “ADCC, Percent Non-Viable cells (EC50 pM), Donor 1” value was below 0.256 pM and the “ADCC, Percent Non-Viable cells (EC50 pM), Donor 2” value worked out at 167 pM.
